Source: PMC13345917, “EasyGrid: a versatile platform for automated cryo-EM sample preparation and quality control” (Nature Methods, 2026)

Molecular target: the molecule itself
Assay: cryo-EM structure; single-particle analysis of KR2 rhodopsin in 50 mM Tris-HCl pH 8.0, 0.1 M NaCl, 0.03% DDM; grids made with EasyGrid at 4 °C; non-symmetrised ab initio model, then refinement with imposed C5 symmetry

B1: KR2 rhodopsin (NaR gene from Krokinobacter eikastus) (natural protein)
chain: MTQELGNANFENFIGATEGFSEIAYQFTSHILTLGYAVMLAGLLYFILTIKNVDKKFQMSNILSAVVMVSAFLLLYAQAQNWTSSFTFNEEVGRYFLDPSGDLFNNGYRYLNWLIDVPMLLFQILFVVSLTTSKFSSVRNQFWFSGAMMIITGYIGQFYEVSNLTAFLVWGAISSAFFFHILWVMKKVINEGKEGISPAGQKILSNIWILFLISWTLYPGAYLMPYLTGVDGFLYSEDGVMARQLVYTIADVSSKVIYGVLLGNLAITLSKNKELVEANS
notes: KR2 rhodopsin, NaR gene from Krokinobacter eikastus, codon-optimised for E. coli; also called KR2 bacterial rhodopsin; source: E. coli C41, pET15b, purified in DDM (Ni-NTA, Superdex 200 Increase)
stoichiometry N: 5
